# Results published in US20150343088A1 (KAGOSHIMA UNIVERSITY, published 2015).
# B1: anti-human FRα/β rat monoclonal antibody (clone name: No. 5) (antibody, V domains shown)
# VH: QVQLKESGPGLVQPSQTLSLTCTVSGFSLTSNSVSWVRQPPGKGLEWMGAIWSGGSTDYNSALKSRLSISKDTSKSQVFLKMNSLQTEDTAIYFCTRYYGYTYFAYWGQGVMVTVSS
# VL: DIQMTQSPASLSASLEEIVTITCQASQDIGNWLAWYQQKPGKSPQLLIYDAIRLADGVPSRFSGSRSGTQYSLKISRLQVEDIGDYYCQQGQSNPRTFGGGTKLELK
# notes: also called antibody No. 5; anti-human FRα/β antibody
# Molecular target: T1, human folate receptor β (human, UniProt P14207 17-230)
# T1 construct: whole, on cells; also called FRβ; FR-β
# T1 sequence (P14207 17-230): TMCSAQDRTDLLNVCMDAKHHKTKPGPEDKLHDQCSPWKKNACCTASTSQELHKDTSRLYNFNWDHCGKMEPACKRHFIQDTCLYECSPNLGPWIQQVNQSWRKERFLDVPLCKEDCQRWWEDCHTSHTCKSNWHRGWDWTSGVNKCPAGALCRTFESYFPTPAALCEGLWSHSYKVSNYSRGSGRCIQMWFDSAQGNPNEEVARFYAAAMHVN
# Assay: flow cytometry on human FRβ-expressing B300-19 cells
# Protocol: The cells were further reacted with an anti-rat antibody labeled with APC. After the end of reaction, stainability was determined using a flow cytometer.
binder,measurement,value
B1,binding result,binds
